Patent publication US20090005294A1 (CENTRO DE INGENIERIA GENETICA Y BIOTECNOLOGIA, published 2009)
Bridges are numbered along the chain shown (N, C = ends). Where no end group is shown, it is not given here.

T1: CKII substrate peptide RRREEETEEE (optimized consensus domain for CKII phosphorylation)
T1 peptide: RRREEETEEE


Target: T1, CKII substrate peptide RRREEETEEE …
Experiment: cell-based or functional assay

Binder | inhibition of CKII phosphorylation of the substrate peptide (32P, cpm on filters)
CQIPQRTATRC (disulfide 1-11 (inferred)) [cyclic peptide (c) CQIPQRTATRC] | 80%
CQSYHELLLQC (disulfide 1-11 (inferred)) [cyclic peptide (k) CQSYHELLLQC] | 80%
CRNCTVIQFSC (disulfide 1-11) [cyclic peptide (f) CRNCTVIQFSC] | 80%
CWMSPRHLGTC (disulfide 1-11 (inferred)) [cyclic peptide (e) CWMSPRHLGTC] | 80%
CSSCQNSPALC (disulfide 1-11) [cyclic peptide (b) CSSCQNSPALC] | 80%
CFQPLTPLCRC (disulfide 1-11) [cyclic peptide (j) CFQPLTPLCRC] | 80%
CPLVSLRDHSC (disulfide 1-11 (inferred)) [cyclic peptide (h) CPLVSLRDHSC] | 80%
CSVRQGPVQKC (disulfide 1-11 (inferred)) [cyclic peptide (a) CSVRQGPVQKC] | 80%
CAKQRTDPGYC (disulfide 1-11 (inferred)) [cyclic peptide (d) CAKQRTDPGYC] | 80%
CKQSYLHHLLC (disulfide 1-11 (inferred)) [cyclic peptide (i) CKQSYLHHLLC] | 80%
CHYIAGTVQGC (disulfide 1-11 (inferred)) [cyclic peptide (g) CHYIAGTVQGC] | 80%
